# Results: the Human Domainome abundance scans (Beltran et al. 2025)
# ± gives the uncertainty stated by the source.
# B1: Nuclear receptor subfamily 1 group D member 2, residues 103 to 171; numbered along this chain, Q14995 (parent)
# chain: CKVCGDVASGFHYGVHACEGCKGFFRRSIQQNIQYKKCLKNENCSIMRMNRNRCQQCRFKKCLSVGMSR
# Variants of: B1
# Assay: abundance fitness (aPCA) (normalised: wild type 0, dead -1); higher = more abundant; growth selection in yeast, the domain comes from the species named
# Conditions: Homo sapiens
row,Variant,abundance fitness
1,D6A,0.04 ± 0.13
2,M67A,-0.574 ± 0.13
3,F24Q,-0.664 ± 0.41
4,K37Q,-0.075 ± 0.12
5,V7Q,0.118 ± 0.11
6,E42S,-0.172 ± 0.076
7,A8C,-0.494 ± 0.16
8,C54R,-0.668 ± 0.079
9,R48T,-0.013 ± 0.11
10,C62G,-0.857 ± 0.19
11,R58T,-0.097 ± 0.1
12,K61L,-0.422 ± 0.12
13,N50E,-0.193 ± 0.16
14,Q56D,0.397 ± 0.14
15,S45R,-0.259 ± 0.051
16,E42W,-0.642 ± 0.25
17,H16M,0.123 ± 0.079
18,I29F,-0.081 ± 0.18
19,R69Q,0.07 ± 0.13
20,K2T,-0.186 ± 0.1
21,C54F,-0.946 ± 0.19
22,C57I,-0.44 ± 0.2
23,H12S,-0.301 ± 0.077
24,R69L,0.143 ± 0.087

row,Variant,abundance fitness
1,D6F,-0.694 ± 0.38
2,N52V,-0.532 ± 0.34
3,C38P,-0.682 ± 0.35
4,V65S,-0.291 ± 0.08
5,V7T,-0.126 ± 0.11
6,E42C,-0.592 ± 0.26
7,I29L,-0.19 ± 0.066
8,N50T,-0.121 ± 0.086
9,K40R,-0.029 ± 0.048
10,N43F,-0.361 ± 0.19
11,R48V,0.241 ± 0.11
12,V65T,-0.536 ± 0.082
13,Q55G,0.088 ± 0.08
14,V15G,-0.546 ± 0.08
15,K37I,-0.279 ± 0.14
16,A8Q,-0.842 ± 0.23
17,R69C,-0.013 ± 0.34
18,M67S,-0.925 ± 0.23
19,F24S,-0.661 ± 0.3
20,C18V,-0.79 ± 0.31
21,K40Y,0.26 ± 0.12
22,V3D,-0.763 ± 0.45
23,V7G,-0.469 ± 0.088
24,R27E,0.216 ± 0.25

row,Variant,abundance fitness
1,A17N,-0.422 ± 0.43
2,N52T,-0.756 ± 0.44
3,R58L,0.278 ± 0.06
4,M49F,0.195 ± 0.37
5,G66M,-0.574 ± 0.4
6,S28K,-0.801 ± 0.49
7,M49D,0.428 ± 0.11
8,N43L,-0.115 ± 0.078
9,I46R,-0.127 ± 0.092
10,K60F,0.044 ± 0.2
11,R69T,0.451 ± 0.13
12,G5I,-0.83 ± 0.25
13,K61C,-0.717 ± 0.38
14,H16Y,-0.096 ± 0.075
15,Y13C,-0.496 ± 0.1
16,K40P,-0.532 ± 0.13
17,I33C,-0.591 ± 0.097
18,K40N,0.246 ± 0.32
19,K40Q,0.206 ± 0.081
20,Q56C,-0.391 ± 0.23
21,Q55P,0.027 ± 0.093
22,S68Q,0.314 ± 0.15
23,K37A,0.064 ± 0.081
24,D6L,-0.572 ± 0.2

row,Variant,abundance fitness
1,I29V,-0.17 ± 0.075
2,K61Q,-0.647 ± 0.22
3,D6R,-0.857 ± 0.26
4,L39T,-0.121 ± 0.16
5,M49T,0.147 ± 0.18
6,K37D,0.255 ± 0.044
7,S28M,-0.291 ± 0.42
8,K37C,-0.495 ± 0.18
9,C4V,-0.941 ± 0.26
10,S64L,0.044 ± 0.064
11,M67L,-0.817 ± 0.17
12,E19T,-0.478 ± 0.28
13,E19Y,-0.394 ± 0.36
14,R51W,-0.077 ± 0.26
15,F25A,-0.72 ± 0.2
16,M47E,0.408 ± 0.15
17,I33S,-0.527 ± 0.071
18,Q30A,0.04 ± 0.096
19,G5S,-0.689 ± 0.097
20,K2D,-0.482 ± 0.22
21,R58H,0.466 ± 0.11
22,S68N,0.186 ± 0.2
23,R51V,0.026 ± 0.14
24,C18E,-0.847 ± 0.3

row,Variant,abundance fitness
1,I46L,-0.282 ± 0.15
2,M67E,-0.483 ± 0.25
3,V3A,-0.74 ± 0.33
4,C4E,-0.687 ± 0.26
5,R69V,0.327 ± 0.07
6,K37V,-0.387 ± 0.099
7,V15P,-0.67 ± 0.094
8,N43M,-0.373 ± 0.15
9,M49S,0.076 ± 0.15
10,M49Y,0.128 ± 0.37
11,R58K,-0.497 ± 0.22
12,C18I,-0.355 ± 0.4
13,H12I,-0.747 ± 0.33
14,N52F,-0.352 ± 0.33
15,R58S,-0.877 ± 0.24
16,K61G,-0.385 ± 0.12
17,F59W,-0.255 ± 0.15
18,Y13L,-0.453 ± 0.078
19,C44Y,-0.183 ± 0.32
20,H12W,0.033 ± 0.08
21,C57S,-0.836 ± 0.3
22,S64C,-0.469 ± 0.38
23,E19L,-0.858 ± 0.32
24,A8Y,-0.782 ± 0.3

row,Variant,abundance fitness
1,A8M,-0.584 ± 0.14
2,F25G,-0.86 ± 0.28
3,C18Q,-0.874 ± 0.22
4,L63G,-0.92 ± 0.24
5,H16V,-0.008 ± 0.059
6,S68R,-0.354 ± 0.12
7,R48L,0.191 ± 0.084
8,I46N,-0.012 ± 0.22
9,Q30N,-0.43 ± 0.49
10,C54K,-0.134 ± 0.17
11,C57M,-1 ± 0.46
12,S64V,-0.107 ± 0.09
13,I33E,-0.424 ± 0.089
14,H16I,-0.306 ± 0.15
15,M67G,-0.744 ± 0.13
16,E42Y,-0.674 ± 0.31
17,C38R,-0.842 ± 0.14
18,M47H,0.07 ± 0.16
19,N32W,-0.891 ± 0.12
20,E19Q,-0.699 ± 0.26
21,R51G,-0.001 ± 0.15
22,S64E,0.346 ± 0.11
23,N41S,-0.022 ± 0.096
24,G66V,-0.798 ± 0.23

row,Variant,abundance fitness
1,K61S,-0.769 ± 0.19
2,F25L,-0.752 ± 0.19
3,S68K,-0.01 ± 0.32
4,C18K,-0.829 ± 0.32
5,Q30K,-0.195 ± 0.17
6,N52S,-0.395 ± 0.46
7,Y13W,-0.152 ± 0.065
8,A8L,-0.998 ± 0.17
9,S9Y,-0.49 ± 0.4
10,E19D,0.114 ± 0.21
11,R58V,-0.903 ± 0.27
12,Y13H,-0.145 ± 0.15
13,K37T,-0.234 ± 0.12
14,V7M,-0.032 ± 0.1
15,F24V,-0.81 ± 0.15
16,C4A,-0.949 ± 0.26
17,V3E,-0.754 ± 0.28
18,Q31G,-0.152 ± 0.072
19,N41G,-0.036 ± 0.09
20,N32D,-0.199 ± 0.093
21,R26W,0.408 ± 0.069
22,R48M,0.443 ± 0.22
23,R27G,-0.433 ± 0.12
